± gives the uncertainty stated by the source.
Assay: abundance fitness (aPCA) (normalised: wild type 0, dead -1); higher = more abundant; growth selection in yeast, the domain comes from the species named
Conditions: Homo sapiens

Substance	abundance fitness
NEDD4-like E3 ubiquitin-protein ligase WWP2 P444H, O00308	0.015 ± 0.037
NEDD4-like E3 ubiquitin-protein ligase WWP2 P444I, O00308	-0.2 ± 0.049
NEDD4-like E3 ubiquitin-protein ligase WWP2 P444K, O00308	0.098 ± 0.071
NEDD4-like E3 ubiquitin-protein ligase WWP2 P444L, O00308	0.036 ± 0.053
NEDD4-like E3 ubiquitin-protein ligase WWP2 P444M, O00308	0.09 ± 0.062
NEDD4-like E3 ubiquitin-protein ligase WWP2 P444N, O00308	0.105 ± 0.038
NEDD4-like E3 ubiquitin-protein ligase WWP2 P444Q, O00308	0.065 ± 0.068
NEDD4-like E3 ubiquitin-protein ligase WWP2 P444R, O00308	0.083 ± 0.041
NEDD4-like E3 ubiquitin-protein ligase WWP2 P444T, O00308	0.045 ± 0.063
NEDD4-like E3 ubiquitin-protein ligase WWP2 P444V, O00308	0.065 ± 0.058
NEDD4-like E3 ubiquitin-protein ligase WWP2 P444W, O00308	-0.059 ± 0.05
NEDD4-like E3 ubiquitin-protein ligase WWP2 P447A, O00308	-0.234 ± 0.043
NEDD4-like E3 ubiquitin-protein ligase WWP2 P447C, O00308	-0.458 ± 0.07
NEDD4-like E3 ubiquitin-protein ligase WWP2 P447D, O00308	-0.304 ± 0.083
NEDD4-like E3 ubiquitin-protein ligase WWP2 P447E, O00308	-0.185 ± 0.062
NEDD4-like E3 ubiquitin-protein ligase WWP2 P447F, O00308	-0.331 ± 0.088
NEDD4-like E3 ubiquitin-protein ligase WWP2 P447H, O00308	-0.381 ± 0.075
NEDD4-like E3 ubiquitin-protein ligase WWP2 P447I, O00308	-0.433 ± 0.051
NEDD4-like E3 ubiquitin-protein ligase WWP2 P447K, O00308	-0.17 ± 0.052
NEDD4-like E3 ubiquitin-protein ligase WWP2 P447L, O00308	-0.228 ± 0.048
NEDD4-like E3 ubiquitin-protein ligase WWP2 P447M, O00308	-0.203 ± 0.045
NEDD4-like E3 ubiquitin-protein ligase WWP2 P447N, O00308	-0.11 ± 0.075

Substance	abundance fitness
NEDD4-like E3 ubiquitin-protein ligase WWP2 P447Q, O00308	-0.289 ± 0.07
NEDD4-like E3 ubiquitin-protein ligase WWP2 P447R, O00308	-0.316 ± 0.04
NEDD4-like E3 ubiquitin-protein ligase WWP2 P447S, O00308	-0.332 ± 0.046
NEDD4-like E3 ubiquitin-protein ligase WWP2 P447T, O00308	-0.541 ± 0.067
NEDD4-like E3 ubiquitin-protein ligase WWP2 P447V, O00308	-0.633 ± 0.04
NEDD4-like E3 ubiquitin-protein ligase WWP2 P447W, O00308	-0.659 ± 0.07
NEDD4-like E3 ubiquitin-protein ligase WWP2 P447Y, O00308	-0.5 ± 0.081
NEDD4-like E3 ubiquitin-protein ligase WWP2 P448A, O00308	0.008 ± 0.044
NEDD4-like E3 ubiquitin-protein ligase WWP2 P448C, O00308	-0.216 ± 0.074
NEDD4-like E3 ubiquitin-protein ligase WWP2 P448D, O00308	0.09 ± 0.059
NEDD4-like E3 ubiquitin-protein ligase WWP2 P448E, O00308	0.045 ± 0.062
NEDD4-like E3 ubiquitin-protein ligase WWP2 P448F, O00308	0.015 ± 0.04
NEDD4-like E3 ubiquitin-protein ligase WWP2 P448G, O00308	-0.046 ± 0.054
NEDD4-like E3 ubiquitin-protein ligase WWP2 P448H, O00308	0.043 ± 0.046
NEDD4-like E3 ubiquitin-protein ligase WWP2 P448I, O00308	-0.13 ± 0.071
NEDD4-like E3 ubiquitin-protein ligase WWP2 P448K, O00308	0.108 ± 0.067
NEDD4-like E3 ubiquitin-protein ligase WWP2 P448L, O00308	-0.013 ± 0.038
NEDD4-like E3 ubiquitin-protein ligase WWP2 P448M, O00308	0.088 ± 0.068
NEDD4-like E3 ubiquitin-protein ligase WWP2 P448N, O00308	0.071 ± 0.072
NEDD4-like E3 ubiquitin-protein ligase WWP2 P448Q, O00308	0.029 ± 0.054
NEDD4-like E3 ubiquitin-protein ligase WWP2 P448R, O00308	-0.033 ± 0.047
NEDD4-like E3 ubiquitin-protein ligase WWP2 P448S, O00308	-0.001 ± 0.037

Substance	abundance fitness
NEDD4-like E3 ubiquitin-protein ligase WWP2 P448T, O00308	0.001 ± 0.05
NEDD4-like E3 ubiquitin-protein ligase WWP2 P448V, O00308	0.023 ± 0.055
NEDD4-like E3 ubiquitin-protein ligase WWP2 P448W, O00308	-0.109 ± 0.062
NEDD4-like E3 ubiquitin-protein ligase WWP2 P448Y, O00308	-0.149 ± 0.056
NEDD4-like E3 ubiquitin-protein ligase WWP2 P475A, O00308	-0.837 ± 0.037
NEDD4-like E3 ubiquitin-protein ligase WWP2 P475C, O00308	-1.06 ± 0.16
NEDD4-like E3 ubiquitin-protein ligase WWP2 P475D, O00308	-0.867 ± 0.14
NEDD4-like E3 ubiquitin-protein ligase WWP2 P475E, O00308	-0.785 ± 0.15
NEDD4-like E3 ubiquitin-protein ligase WWP2 P475F, O00308	-0.88 ± 0.1
NEDD4-like E3 ubiquitin-protein ligase WWP2 P475G, O00308	-1 ± 0.042
NEDD4-like E3 ubiquitin-protein ligase WWP2 P475H, O00308	-0.813 ± 0.15
NEDD4-like E3 ubiquitin-protein ligase WWP2 P475I, O00308	-0.523 ± 0.11
NEDD4-like E3 ubiquitin-protein ligase WWP2 P475K, O00308	-1.24 ± 0.27
NEDD4-like E3 ubiquitin-protein ligase WWP2 P475L, O00308	-0.876 ± 0.04
NEDD4-like E3 ubiquitin-protein ligase WWP2 P475M, O00308	-0.574 ± 0.062
NEDD4-like E3 ubiquitin-protein ligase WWP2 P475N, O00308	-0.941 ± 0.13
NEDD4-like E3 ubiquitin-protein ligase WWP2 P475Q, O00308	-0.836 ± 0.11
NEDD4-like E3 ubiquitin-protein ligase WWP2 P475R, O00308	-0.933 ± 0.041
NEDD4-like E3 ubiquitin-protein ligase WWP2 P475S, O00308	-0.852 ± 0.054
NEDD4-like E3 ubiquitin-protein ligase WWP2 P475T, O00308	-1.36 ± 0.2

Source: the Human Domainome abundance scans (Beltran et al. 2025)
